Test system: Human Plasmin
Assay: Deacylation (hydrolysis) of active-site blocked human plasmin, pseudo-first order rate constant followed by regain of activity on chromogenic substrate S-2251
Type: biochemical
Conditions: for Deacylation rate, Human Plasmin K sec^-1 × 10^4: active site serine substituted human plasmin, pH 7.4, 37° C.
Experimental: The pseudo-first order rate constant is determined by hydrolysing the enzyme derivative under physiological conditions i.e. in isotonic aqueous media at pH 7.4 and at 37° C. At regular intervals aliquots are withdrawn and incubated with a chromogenic or fluorogenic protease substrate such as S-2251 (H-D-Val-Leu-Lys-p-nitroanilide 2HCl) and the rate of conversion of the substrate measured.
The hydrolysis is followed until such time as the rate of conversion of substrate reaches a maximum. The rate constant k is then calculated by plotting: […]
loge (1-^At /Amax) against t
where Amax the maximum rate at which an aliquot converts substrate and At is the rate at which an aliquot converts substrate at time t.

B1: p-Anisoyl Human Plasmin (protein, UniProt P00747 20-580; P00747 581-810, looked up)
Plasmin heavy chain A: EPLDDYVNTQGASLFSVTKKQLGAGSIEECAAKCEEDEEFTCRAFQYHSKEQQCVIMAENRKSSIIIRMRDVVLFEKKVYLSECKTGNGKNYRGTMSKTKNGITCQKWSSTSPHRPRFSPATHPSEGLEENYCRNPDNDPQGPWCYTTDPEKRYDYCDILECEEECMHCSGENYDGKISKTMSGLECQAWDSQSPHAHGYIPSKFPNKNLKKNYCRNPDRELRPWCFTTDPNKRWELCDIPRCTTPPPSSGPTYQCLKGTGENYRGNVAVTVSGHTCQHWSAQTPHTHNRTPENFPCKNLDENYCRNPDGKRAPWCHTTNSQVRWEYCKIPSCDSSPVSTEQLAPTAPPELTPVVQDCYHGDGQSYRGTSSTTTTGKKCQSWSSMTPHRHQKTPENYPNAGLTMNYCRNPDADKGPWCFTTDPSVRWEYCNLKKCSGTEASVVAPPPVVLLPDVETPSEEDCMFGNGKGYRGKRATTVTGTPCQDWAAQEPHRHSIFTPETNPRAGLEKNYCRNPDGDVGGPWCYTTNPRKLYDYCDVPQCAAPSFDCGKPQVEPKKCPGR
Plasmin light chain B: VVGGCVAHPHSWPWQVSLRTRFGMHFCGGTLISPEWVLTAAHCLEKSPRPSSYKVILGAHQEVNLEPHVQEIEVSRLFLEPTRKDIALLKLSSPAVITDKVIPACLPSPNYVVADRTECFITGWGETQGTFGAGLLKEAQLPVIENKVCNRYEFLNGRVQSTELCAGHLAGGTDSCQGDSGGPLVCFEKDKYILQGVTSWGLGCARPNKPGVYVRVSRFVTWIEGVMRNN
modifications: Plasmin active-site p-anisoyl acylated
notes: human plasmin acylated at the catalytic site with p-amidinophenyl p'anisate
With B1 the “time for quantitative reactivation to free plasmin” value (conditions specified for deacylation (isotonic aqueous media, pH 7.4, 37° C.)) was “approximately two”.

B2: O-Anisoyl: human plasmin, active site serine blocked by o-anisoyl (acylating agent of Example 15) (protein, UniProt P00747 20-580; P00747 581-810, looked up)
Plasmin heavy chain A: EPLDDYVNTQGASLFSVTKKQLGAGSIEECAAKCEEDEEFTCRAFQYHSKEQQCVIMAENRKSSIIIRMRDVVLFEKKVYLSECKTGNGKNYRGTMSKTKNGITCQKWSSTSPHRPRFSPATHPSEGLEENYCRNPDNDPQGPWCYTTDPEKRYDYCDILECEEECMHCSGENYDGKISKTMSGLECQAWDSQSPHAHGYIPSKFPNKNLKKNYCRNPDRELRPWCFTTDPNKRWELCDIPRCTTPPPSSGPTYQCLKGTGENYRGNVAVTVSGHTCQHWSAQTPHTHNRTPENFPCKNLDENYCRNPDGKRAPWCHTTNSQVRWEYCKIPSCDSSPVSTEQLAPTAPPELTPVVQDCYHGDGQSYRGTSSTTTTGKKCQSWSSMTPHRHQKTPENYPNAGLTMNYCRNPDADKGPWCFTTDPSVRWEYCNLKKCSGTEASVVAPPPVVLLPDVETPSEEDCMFGNGKGYRGKRATTVTGTPCQDWAAQEPHRHSIFTPETNPRAGLEKNYCRNPDGDVGGPWCYTTNPRKLYDYCDVPQCAAPSFDCGKPQVEPKKCPGR
Plasmin light chain B: VVGGCVAHPHSWPWQVSLRTRFGMHFCGGTLISPEWVLTAAHCLEKSPRPSSYKVILGAHQEVNLEPHVQEIEVSRLFLEPTRKDIALLKLSSPAVITDKVIPACLPSPNYVVADRTECFITGWGETQGTFGAGLLKEAQLPVIENKVCNRYEFLNGRVQSTELCAGHLAGGTDSCQGDSGGPLVCFEKDKYILQGVTSWGLGCARPNKPGVYVRVSRFVTWIEGVMRNN
modifications: plasmin o-anisoyl acylated active site
In the case of B2, the “Deacylation rate, Human Plasmin K sec^-1 × 10^4” value (“Deacylation rate” for short) is reported as 1.82 sec^-1 × 10^4.

B3: N-methyl-p-guanidinobenzoyl: human plasmin, active site serine blocked by N-methyl-p-guanidinobenzoyl (protein, UniProt P00747 20-580; P00747 581-810, looked up)
Plasmin heavy chain A: EPLDDYVNTQGASLFSVTKKQLGAGSIEECAAKCEEDEEFTCRAFQYHSKEQQCVIMAENRKSSIIIRMRDVVLFEKKVYLSECKTGNGKNYRGTMSKTKNGITCQKWSSTSPHRPRFSPATHPSEGLEENYCRNPDNDPQGPWCYTTDPEKRYDYCDILECEEECMHCSGENYDGKISKTMSGLECQAWDSQSPHAHGYIPSKFPNKNLKKNYCRNPDRELRPWCFTTDPNKRWELCDIPRCTTPPPSSGPTYQCLKGTGENYRGNVAVTVSGHTCQHWSAQTPHTHNRTPENFPCKNLDENYCRNPDGKRAPWCHTTNSQVRWEYCKIPSCDSSPVSTEQLAPTAPPELTPVVQDCYHGDGQSYRGTSSTTTTGKKCQSWSSMTPHRHQKTPENYPNAGLTMNYCRNPDADKGPWCFTTDPSVRWEYCNLKKCSGTEASVVAPPPVVLLPDVETPSEEDCMFGNGKGYRGKRATTVTGTPCQDWAAQEPHRHSIFTPETNPRAGLEKNYCRNPDGDVGGPWCYTTNPRKLYDYCDVPQCAAPSFDCGKPQVEPKKCPGR
Plasmin light chain B: VVGGCVAHPHSWPWQVSLRTRFGMHFCGGTLISPEWVLTAAHCLEKSPRPSSYKVILGAHQEVNLEPHVQEIEVSRLFLEPTRKDIALLKLSSPAVITDKVIPACLPSPNYVVADRTECFITGWGETQGTFGAGLLKEAQLPVIENKVCNRYEFLNGRVQSTELCAGHLAGGTDSCQGDSGGPLVCFEKDKYILQGVTSWGLGCARPNKPGVYVRVSRFVTWIEGVMRNN
modifications: plasmin N-methyl-p-guanidinobenzoyl acylated active site
B3 was tested, and the “Deacylation rate” value was 2.0 sec^-1 × 10^4.

B4: p-Acetamidobenzoyl: human plasmin, active site serine blocked by p-acetamidobenzoyl (acylating agent of Example 18) (protein, UniProt P00747 20-580; P00747 581-810, looked up)
Plasmin heavy chain A: EPLDDYVNTQGASLFSVTKKQLGAGSIEECAAKCEEDEEFTCRAFQYHSKEQQCVIMAENRKSSIIIRMRDVVLFEKKVYLSECKTGNGKNYRGTMSKTKNGITCQKWSSTSPHRPRFSPATHPSEGLEENYCRNPDNDPQGPWCYTTDPEKRYDYCDILECEEECMHCSGENYDGKISKTMSGLECQAWDSQSPHAHGYIPSKFPNKNLKKNYCRNPDRELRPWCFTTDPNKRWELCDIPRCTTPPPSSGPTYQCLKGTGENYRGNVAVTVSGHTCQHWSAQTPHTHNRTPENFPCKNLDENYCRNPDGKRAPWCHTTNSQVRWEYCKIPSCDSSPVSTEQLAPTAPPELTPVVQDCYHGDGQSYRGTSSTTTTGKKCQSWSSMTPHRHQKTPENYPNAGLTMNYCRNPDADKGPWCFTTDPSVRWEYCNLKKCSGTEASVVAPPPVVLLPDVETPSEEDCMFGNGKGYRGKRATTVTGTPCQDWAAQEPHRHSIFTPETNPRAGLEKNYCRNPDGDVGGPWCYTTNPRKLYDYCDVPQCAAPSFDCGKPQVEPKKCPGR
Plasmin light chain B: VVGGCVAHPHSWPWQVSLRTRFGMHFCGGTLISPEWVLTAAHCLEKSPRPSSYKVILGAHQEVNLEPHVQEIEVSRLFLEPTRKDIALLKLSSPAVITDKVIPACLPSPNYVVADRTECFITGWGETQGTFGAGLLKEAQLPVIENKVCNRYEFLNGRVQSTELCAGHLAGGTDSCQGDSGGPLVCFEKDKYILQGVTSWGLGCARPNKPGVYVRVSRFVTWIEGVMRNN
modifications: plasmin p-acetamidobenzoyl acylated active site
In the case of B4, the “Deacylation rate” value is reported as 2.70 sec^-1 × 10^4.

— patent US4285932A, “Enzyme derivatives for use in the treatment of venous thrombosis” (Beecham Group Limited, priority 1978, dated 1981)
